Data from the Immune Epitope Database (IEDB).

Assays:
[1] = molecular target: HLA-B*44:03; assay: IEDB peptide-MHC binding, purified MHC/competitive/radioactivity; filed as Kd, often an IC50 or EC50 that approximates it; ≥ and ≤ were set here for values at or beyond the usual limits of such assays
[2] = molecular target: HLA-A*32:01; assay: as above
[3] = molecular target: HLA-B*15:01; assay: as above
[4] = molecular target: HLA-A*01:01; assay: IEDB peptide-MHC binding, purified MHC/direct/fluorescence; filed as Kd, often an IC50 or EC50 that approximates it; ≥ and ≤ were set here for values at or beyond the usual limits of such assays
[5] = molecular target: HLA-A*02:01; assay: as above; conditions: source organism: Pseudomonas putida
[6] = molecular target: HLA-A*03:01; assay: as above
[7] = molecular target: HLA-A*11:01; assay: as above
[8] = molecular target: HLA-A*26:01; assay: as above
[9] = molecular target: HLA-A*31:01; assay: as above
[10] = molecular target: HLA-A*69:01; assay: as above
[11] = molecular target: HLA-B*07:02; assay: as above; conditions: source organism: Pseudomonas putida
[12] = molecular target: HLA-B*08:01; assay: as above; conditions: source organism: Pseudomonas putida
[13] = molecular target: HLA-B*15:01; assay: as above; conditions: source organism: Pseudomonas putida
[14] = molecular target: HLA-B*27:05; assay: as above
[15] = molecular target: HLA-B*40:01; assay: as above; conditions: source organism: Pseudomonas putida
[16] = molecular target: HLA-B*58:01; assay: as above
[17] = molecular target: HLA-B*08:01; assay: IEDB peptide-MHC binding, purified MHC/competitive/radioactivity; filed as Kd, often an IC50 or EC50 that approximates it; ≥ and ≤ were set here for values at or beyond the usual limits of such assays
[18] = molecular target: HLA-A*03:01; assay: as above; conditions: source organism: Vaccinia virus WR
[19] = molecular target: HLA-A*11:01; assay: as above; conditions: source organism: Vaccinia virus WR
[20] = molecular target: HLA-A*31:01; assay: as above; conditions: source organism: Vaccinia virus WR
[21] = molecular target: HLA-A*33:01; assay: as above; conditions: source organism: Vaccinia virus WR
[22] = molecular target: HLA-A*68:01; assay: as above; conditions: source organism: Vaccinia virus WR
[23] = molecular target: HLA-B*57:01; assay: IEDB peptide-MHC binding, purified MHC/direct/fluorescence; filed as Kd, often an IC50 or EC50 that approximates it; ≥ and ≤ were set here for values at or beyond the usual limits of such assays
[24] = molecular target: HLA-A*01:01; assay: IEDB peptide-MHC binding, purified MHC/competitive/radioactivity; filed as Kd, often an IC50 or EC50 that approximates it; ≥ and ≤ were set here for values at or beyond the usual limits of such assays
[25] = molecular target: HLA-A*30:02; assay: as above
[26] = molecular target: HLA-B*35:01; assay: as above
[27] = molecular target: HLA-A*24:03; assay: IEDB peptide-MHC binding, purified MHC/direct/fluorescence; filed as Kd, often an IC50 or EC50 that approximates it; ≥ and ≤ were set here for values at or beyond the usual limits of such assays
[28] = molecular target: HLA-A*26:01; assay: IEDB peptide-MHC binding, purified MHC/competitive/radioactivity; filed as Kd, often an IC50 or EC50 that approximates it; ≥ and ≤ were set here for values at or beyond the usual limits of such assays
[29] = molecular target: HLA-B*53:01; assay: as above
[30] = molecular target: HLA-A*02:02; assay: as above; conditions: source organism: Vaccinia virus WR
[31] = molecular target: HLA-A*02:03; assay: as above; conditions: source organism: Vaccinia virus WR
[32] = molecular target: HLA-A*02:06; assay: as above; conditions: source organism: Vaccinia virus WR
[33] = molecular target: HLA-B*07:02; assay: as above
[34] = molecular target: HLA-B*51:01; assay: as above
[35] = molecular target: HLA-B*54:01; assay: as above
[36] = source organism: Dengue virus 3 Martinique/1243/1999
[37] = source organism: Dengue virus 1 Brazil/97-11/1997
[38] = source organism: Vaccinia virus Copenhagen
[39] = source organism: Dengue virus 4 Philippines/H241/1956
[40] = source organism: Pseudomonas putida
[41] = source organism: Dengue virus 2 Jamaica/1409/1983
[42] = source organism: Vaccinia virus WR
[43] = source organism: Burkholderia lata
[44] = source organism: Dengue virus 4 Dominica/814669/1981
[45] = source organism: Dengue virus 3 Singapore/8120/1995
[46] = source organism: Dengue virus 2 16681-PDK53
[47] = source organism: Lassa virus Josiah

AEWLWRTLGR
Kd [1, 36]: 0.314 µM

AMEELPDTI
Kd [2, 37]: ≥ 21.4 µM

ATAGLHLGF
Kd [2, 38]: 0.00169 µM

AVHQVFGSVY
Kd [3, 39]: 0.0011 µM

DLSNSMRDF
Kd [4, 40]: ≥ 20 µM | Kd [5]: ≥ 20 µM | Kd [6, 40]: ≥ 20 µM | Kd [7, 40]: ≥ 20 µM | Kd [8, 40]: 4.52 µM | Kd [9, 40]: ≥ 20 µM | Kd [10, 40]: ≥ 20 µM | Kd [11]: ≥ 20 µM | Kd [12]: ≥ 20 µM | Kd [13]: ≥ 20 µM | Kd [14, 40]: ≥ 20 µM | Kd [15]: ≥ 20 µM | Kd [16, 40]: ≥ 20 µM

EARKTFVDL
Kd [17, 41]: 0.57 µM

EEISTSLSF
Kd [3, 42]: 0.00205 µM

EETNMITLLV
Kd [1, 39]: 0.614 µM

ELCGAFLFY
Kd [18]: 0.156 µM | Kd [19]: 0.196 µM | Kd [20]: 1.03 µM | Kd [21]: 13.6 µM | Kd [22]: 0.277 µM | Kd [3, 42]: 0.00747 µM

ELKLFNVTL
Kd [17, 42]: 0.00468 µM

ELNNTQCHI
Kd [3, 42]: 1.24 µM

ETIDTIIDQ
Kd ([8]; source organism: Mammarenavirus lassaense): 0.954 µM

ETLWSPWKL
Kd [23, 43]: ≥ 20 µM | Kd [16, 43]: 1.41 µM

FIWFIFHFV
Kd ([17]; source organism: Vaccinia virus): 3.16 µM

FSFMYIESI
Kd [3, 42]: 0.191 µM

FSQHNYRQGY
Kd [24, 39]: 0.21 µM | Kd [25, 39]: 1.25 µM | Kd [3, 39]: 0.135 µM | Kd [26, 39]: ≥ 45.4 µM

FVKRKKLDI
Kd [17, 42]: 0.00298 µM

GASRRSWPL
Kd [17, 44]: 0.014 µM

GGPISQHNY
Kd [25, 37]: 0.473 µM

GKKHMIAGVL
Kd [17, 45]: 11.9 µM

GWALGYLYF
Kd ([27]; source organism: Mycobacterium tuberculosis): 0.0245 µM

HTTERGGKAY
Kd [24, 39]: 4.31 µM | Kd [28, 39]: 1.32 µM | Kd [3, 39]: 0.0505 µM

HTTERGGRAY
Kd [24, 44]: 0.145 µM | Kd [28, 44]: 0.345 µM | Kd [3, 44]: 0.22 µM

IDKKGKVVGL
Kd [17, 46]: 13.7 µM

IISSTPFAEY
Kd [24, 39]: 3.44 µM | Kd [25, 39]: 0.0369 µM

ILLKMVTHF
Kd [3, 39]: 0.00172 µM

ILVIFTVAI
Kd [2, 42]: 0.0153 µM

ISYIMLIFF
Kd ([23]; source organism: Yellow fever virus): 2.96 µM

ITNELNYVL
Kd [2, 39]: 0.0746 µM

ITYCLVTHM
Kd [3, 42]: 0.0253 µM

KETACLGKAY
Kd [1, 45]: 0.123 µM

KIDNYVVKF
Kd [2, 42]: 0.0194 µM

KSDPIMLLK
Kd ([4]; source organism: Homo sapiens): 0.345 µM | Kd ([6]; source organism: Homo sapiens): 0.381 µM | Kd ([7]; source organism: Homo sapiens): 0.0408 µM | Kd ([9]; source organism: Homo sapiens): 8.13 µM | Kd ([10]; source organism: Homo sapiens): 1.5 µM | Kd ([14]; source organism: Homo sapiens): 7.47 µM

KTKLNDWDFV
Kd [2, 36]: 18.5 µM

LAMNSVFTF
Kd [2, 38]: 0.0161 µM

LAVSGVYPM
Kd [3, 37]: 0.0664 µM | Kd [26, 37]: 0.0167 µM | Kd [29, 37]: 0.851 µM

LENENILHG
Kd [3, 38]: 0.309 µM

LGKSEFQIY
Kd [25, 41]: ≥ 76.9 µM

LGRNKRPRL
Kd ([17]; source organism: Dengue virus 3 Sri Lanka/1266/2000): 0.0427 µM

LGSSFCLHA
Kd [3, 42]: ≥ 25.5 µM

LIITKVFSF
Kd [2, 42]: 0.0839 µM | Kd [3, 42]: 0.00768 µM

LLFNSSFCI
Kd [3, 42]: 0.104 µM

LSPVRVPNY
Kd [24, 41]: 5.42 µM | Kd [25, 41]: 0.0502 µM

LTIESVNAL
Kd [2, 38]: 0.17 µM

MEAEGVITQ
Kd [1, 39]: 8.98 µM

MLHCYESYM
Kd [3, 42]: 0.097 µM

MLLVLCAVQL
Kd [17, 36]: 5.97 µM

MMKERSTIL
Kd [17, 42]: 0.0349 µM

MRGAKRMAIL
Kd [17, 41]: 0.0542 µM

MTDEQIYAF
Kd [2, 42]: 0.0177 µM

NEMVLLQMED
Kd [1, 41]: 6.08 µM

NEMVLLTMKE
Kd [1, 37]: 5.67 µM

NPQTKQMAF
Kd [17, 42]: 0.0143 µM

PNTNRAWNSL
Kd [2, 41]: 1.56 µM

PVPGDWLYF
Kd ([8]; source organism: Mycobacterium tuberculosis str. Haarlem): 1.29 µM

RFTPVKHEL
Kd ([27]; source organism: Vibrio parahaemolyticus): 0.005 µM

RSISRTENF
Kd [3, 42]: 0.00477 µM

RSWPLNEGI
Kd [2, 39]: 0.491 µM

RYRGEDGCWY
Kd [25, 41]: 0.198 µM

STFSISSIF
Kd [2, 38]: 0.00105 µM

SVMNFIPII
Kd [30]: 0.0132 µM | Kd [31]: 0.00626 µM | Kd [32]: 0.00283 µM | Kd [2, 42]: 0.000604 µM

TLKGMSYVM
Kd ([3]; source organism: Dengue virus 1 Singapore/S275/1990): 0.0176 µM

TLWAIINTI
Kd [2, 42]: 0.00152 µM

VPVLEKKVCA
Kd [33, 42]: 3 µM | Kd [26, 42]: 7.68 µM | Kd [34, 42]: ≥ 29.1 µM | Kd [29, 42]: ≥ 26.4 µM | Kd [35, 42]: 0.256 µM

VVQPENLEY
Kd [24, 46]: 0.381 µM | Kd [25, 46]: 2.04 µM

WMINIMIHM
Kd [3, 42]: 0.667 µM

WNSGHEWVTD
Kd [2, 41]: ≥ 61.8 µM

WPYIASRTSI
Kd [33, 47]: 0.0556 µM | Kd [26, 47]: ≥ 72 µM | Kd [34, 47]: 0.0458 µM | Kd [29, 47]: ≥ 23.2 µM | Kd [35, 47]: 0.714 µM

YISKVFEHV
Kd [3, 42]: 0.0942 µM
